Laboratory results reported in paper PMC10937380 (Nature, 2024).

Tests used:
[1] = target: T1, E3mUU(ΔUFIM) with UFBP1(R265A) (UniProt O94874 1-179; Q96HY6 204-314, R265A); assay: SEC; analytical SEC, Superdex 200 Increase 3.2/300, 25 mM HEPES pH 7.5, 200 mM NaCl, 0.5 mM TCEP; components mixed and kept on ice before loading; peak fractions on Coomassie gels; details: both partners purified
T1 construct: UFL1; limits as stated for the crystallised E3mUU(ΔUFIM) construct; UFBP1 204-C; limits as for m14; source: recombinant, purified (HisTrap, HiLoad 26/600 Superdex 75 pg)

E3mUU(ΔUFIM) = target: T2, E3mUU(ΔUFIM) (UniProt O94874 1-179; Q96HY6 204-314); assay: as above; details: both partners purified
T2 construct: UFL1; limits as stated for the crystallised E3mUU(ΔUFIM) construct; for the crystal 6×His-TEV-UFL1(1–179) was co-expressed with a UFC1-UFBP1 204-C fusion and the His tag was not cleaved; source: recombinant, purified (HisTrap, HiLoad 26/600 Superdex 75 pg)

| binding result [1] | binding result (E3mUU(ΔUFIM)) | Binder |
| --- | --- | --- |
| binds | – | UFC1 (enzyme, free UFC1 in SEC and ITC; also called E2) MADEATRRVVSEIPVLKTNAGPRDRELWVQRLKEEYQSLIRYVENNKNADNDWFRLESNKEGTRWFGKCWYIHDLLKYEFDIEFDIPITYPTTAPEIAVPELDGKTAKMYRGGKICLTDHFKPLWARNVPKFGLAHLMALGLGPWLAVEIPDLIQKGVIQHKEKCNQ |
| – | binds | UFC1(D50A) (enzyme) MADEATRRVVSEIPVLKTNAGPRDRELWVQRLKEEYQSLIRYVENNKNAANDWFRLESNKEGTRWFGKCWYIHDLLKYEFDIEFDIPITYPTTAPEIAVPELDGKTAKMYRGGKICLTDHFKPLWARNVPKFGLAHLMALGLGPWLAVEIPDLIQKGVIQHKEKCNQ |
